Reference: patent US20210363269A1 (ALX ONCOLOGY, published 2021)

Columns and labels:
Assay in all cases: SPR, antibody immobilised on GLC chip
[1] = biological target: T1, human SIRP-α v2 D1 domain (human)
T1 construct: biotinylated and captured on avidin in the ELISA; also called human v2
Outline: (§1)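 On a ProteOn XPR36 biosensor, Protein A-purified antibodies were amine-coupled to a GLC chip at about ~1000 RU after dilution to 80 nM in 10 mM sodium acetate pH 4.5. SIRP analytes at 100, 33, 11, 3.7, 1.2 and 0 nM were then injected one-shot in PBS pH 7.4 containing 0.01% Tween-20 at 25° C, with 90 s of association at 100 μL/min and 1200 s of dissociation. The dissociation constant (KD) was calculated as kd/ka from a global Langmuir fit of double-referenced data.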

[2] = biological target: T2, human SIRP-α v1 D1 domain (human, UniProt P78324 31-149)
T2 construct: biotinylated and captured on avidin in the ELISA; also called human v1
Outline: as §1

[3] = biological target: T3, human SIRP-α v2 D1 domain (human)
T3 construct: also called human v2; human α v2
Description: (§2) All experiments were performed at 25° C. using a SPR-based ProteOn XPR36 biosensor (BioRad, Inc, Hercules, Calif.) equipped with GLC or NLC sensor chips. […] Purification was carried out by standard Protein A affinity column chromatography and eluted antibodies were stored in PBS buffer.
(§3) For the method using GLC chip, the analytes were injected and flowed over anti-SIRPα antibodies immobilized (˜1000 RUs) on GLC chips using Proteon™ Amine Coupling Kit. For the immobilization step, GLC chip was activated with EDAC/Sulpho-NHS 1:1 (Biorad) diluted 1/100 for 300 s at 25 μL/min. Anti-SIRPα antibodies were diluted to 80 nM concentration in 10 mM sodium acetate buffer pH 4.5 and immobilized to the chip at 30 μL/min for 50 s. Chip was inactivated with ethanolamine for 300 s at 25 μL/min. The analytes (e.g., SIRP-α from different species, SIRP-β, SIRP-γ) were injected in a “one-shot” kinetic mode at nominal concentrations of 100, 33, 11, 3.7, 1.2 and 0 nM. Association times were monitored for 90 s at 100 μL/min, and dissociation times were monitored for 1200 s. The surfaces were regenerated with a 2:1 v/v blend of Pierce IgG elution buffer/4M NaCl.

[4] = biological target: T4, human SIRP-α v1 D1 domain (human, UniProt P78324 31-149)
T4 construct: also called human v1; human α v1
Description: as §2, §3

[5] = biological target: T5, human SIRPγ isoform 1 (human, UniProt Q9P1W8 29-147)
T5 construct: also called sirpg; sirp-g
Description: as §2, §3

[6] = biological target: T6, cynomolgus SIRP-α D1 domain (SEQ ID NO:11) (cynomolgus, UniProt Q5TFQ8 30-148 (human entry), limits assumed)
T6 construct: also called cyno1
T6 chain: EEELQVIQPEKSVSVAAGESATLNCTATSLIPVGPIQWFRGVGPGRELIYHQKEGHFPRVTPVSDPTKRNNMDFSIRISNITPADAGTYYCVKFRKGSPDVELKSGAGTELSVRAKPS
Description: as §2, §3

T5 sequence (Q9P1W8 29-147 limits assumed): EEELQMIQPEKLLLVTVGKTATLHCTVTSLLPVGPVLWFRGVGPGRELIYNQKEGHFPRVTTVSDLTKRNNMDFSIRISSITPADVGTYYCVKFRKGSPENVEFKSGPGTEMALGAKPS

B1: 119 wt/wt_M34V (antibody, human IgG1, V domains shown)
VH: DVQLLESGGGVVQPGGSLRLSCAASGFSFSNFAVTWVRQAPGEGLEWVSTIGSGDTYYADSVKGRFTISRDNSKNTLYLQMNSLRAEDTAVYYCAKDSTVSWSGDFFDYWGLGTLVTVSS
VL: EIVLTQSPATLSVSPGERATFSCRASQNVKNDLAWYQQRPGQAPRLLIYAARIRETGIPERFSGSGSGTEFTLTITSLQSEDFAVYYCQQYYDWPPFTFGGGTKVEIK
notes: human IgG1 with L234A, L235A, G237A, N297A
Which results are given for B1?
binding result [1]: binds; binding result [2]: binds

B2: antibody 135 variant wt/mut (antibody, human IgG1, V domains shown)
VH: EVQLVESGGGVVQPGGSLRLSCAASGFSFSIYAVSWVRQAPGKGLEWVSTIGADDTYYADSVKGRFTISRDNSKNTLYLQMNSLRAEDTAVYYCAKDSTVGWSGDFFDYWGQGTLVTVSS
VL: EIVLTQSPATLSVSPGERVTFSCRASQNVRSDIAWYQQKPGQAPRLLIYAASSRDTGIPDRFSGSGSGTDFTLTISSLQSEDFGVYYCQQYYDWPPFTFGGGTKVEIK
notes: Human IgG1 with L234A/L235A/G237A/N297A; Labels are in the order VL/VH
Which Kd [3] does the source give for B2 here?
Its Kd is 19.7 pM.

What about the Kd [4] of the same binder?
The Kd was 184 pM.

What about the Kd [5] of the same binder?
Its Kd is 779 pM.

What about the Kd [6] of the same binder?
Its Kd is 125 pM.

B3: antibody 135 variant mut/wt (antibody, human IgG1, V domains shown)
VH: DVQLVESGGGVVRPGESLRLSCAASGFSFSIYAMSWVRQAPGEGLEWVSTIGADDTYYADSVKGRFTISRDNSKNTLYLQMNSLRAEDTAVYYCAKDSTVGWSGDFFDYWGLGTLVTVSS
VL: EIVLTQSPATLSVSPGERVTLSCRASQNVRSDIAWYQQKPGQAPRLLIYAASSRDTGIPARFSGSGSGTDFTLTISSLQSEDFGVYYCQQYYDWPPFTFGGGTKVEIK
notes: as for B2
With B3 as the binder, how does the Kd [3] read?
The Kd was 26.6 pM.

And the Kd [4]?
The Kd was 149 pM.

What about the Kd [5] of the same binder?
The Kd was 522 pM.

What about the Kd [6] of the same binder?
Its Kd is 102 pM.

B4: 119 wt/wt_M34L (antibody, human IgG1, V domains shown)
VH: DVQLLESGGGVVQPGGSLRLSCAASGFSFSNFALTWVRQAPGEGLEWVSTIGSGDTYYADSVKGRFTISRDNSKNTLYLQMNSLRAEDTAVYYCAKDSTVSWSGDFFDYWGLGTLVTVSS
VL: EIVLTQSPATLSVSPGERATFSCRASQNVKNDLAWYQQRPGQAPRLLIYAARIRETGIPERFSGSGSGTEFTLTITSLQSEDFAVYYCQQYYDWPPFTFGGGTKVEIK
notes: as for B1
Does B4 bind [1]?
Result: binds

Does B4 bind [2]?
Result: binds

B5: antibody 135 wt/wt (parental) (antibody, human IgG1, V domains shown)
VH: DVQLVESGGGVVRPGESLRLSCAASGFSFSIYAMSWVRQAPGEGLEWVSTIGADDTYYADSVKGRFTISRDNSKNTLYLQMNSLRAEDTAVYYCAKDSTVGWSGDFFDYWGLGTLVTVSS
VL: EIVLTQSPATLSVSPGERVTFSCRASQNVRSDIAWYQQKPGQAPRLLIYAASSRDTGIPDRFSGSGSGTDFTLTISSLQSEDFGVYYCQQYYDWPPFTFGGGTKVEIK
notes: Human IgG1 with L234A/L235A/G237A/N297A; Labels are in the order VL/VH; also called AB135a
Which results are given for B5?
Kd [3]: 29 pM; Kd [4]: 151 pM; Kd [5]: 539 pM; Kd [6]: 96.9 pM
